doi:10.1101/2020.06.27.175620 (bioRxiv, 2020)

B1: cytochrome b of CIII2 (natural protein, Rhodobacter capsulatus)
chain: MSGIPHDHYEPKTGIEKWLHDRLPIVGLVYDTIMIPTPKNLNWWWIWGIVLAFTLVLQIVTGIVLAMHYTPHVDLAFASVEHIMRDVNGGWAMRYIHANGASLFFLAVYIHIFRGLYYGSYKAPREITWIVGMVIYLLMMGTAFMGYVLPWGQMSFWGATVITGLFGAIPGIGPSIQAWLLGGPAVDNATLNRFFSLHYLLPFVIAALVAIHIWAFHTTGNNNPTGVEVRRTSKADAEKDTLPFWPYFVIKDLFALALVLLGFFAVVAYMPNYLGHPDNYVQANPLSTPAHIVPEWYFLPFYAILRAFAADVWVVILVDGLTFGIVDAKFFGVIAMFGAIAVMALAPWLDTSKVRSGAYRPKFRMWFWFLVLDFVVLTWVGAMPTEYPYDWISLIASTYWFAYFLVILPLLGATEKPEPIPASIEEDFNSHYGNPAE

Tests used:
cryo-EM structure = target: the molecule itself; assay: cryo-EM structure
cytochrome b of CIII2 = target: B1; assay: cryo-EM structure

binding result (cytochrome b of CIII2) | Binder | binding result (cryo-EM structure)
– | B1 | binds
binds | Rieske FeS protein of CIII2 (natural protein, Rhodobacter capsulatus) MSHAEDNAGTRRDFLYHATAATGVVVTGAAVWPLINQMNASADVKAMASIFVDVSAVEVGTQLTVKWRGKPVFIRRRDEKDIELARSVPLGALRDTSAENANKPGAEATDENRTLPAFDGTNTGEWLVMLGVCTHLGCVPMGDKSGDFGGWFCPCHGSHYDSAGRIRKGPAPRNLDIPVAAFVDETTIKLG | –
